Laboratory results published in patent US12459997B2, “Compounds and methods targeting interleukin-19” (Eli Lilly and Company, priority 2018, dated 2025).
One block for each molecule: values may come before it.

Assays:
[1] = tested on: Ps0 patients; assay: Ps0 study in anti-TNFα treatment groups: serum IL-19 and PASI; format: in vivo, human; details: for IL-19 serum levels (geometric mean) / % of patients with serum IL-19 concentration ≤ 21 pg/mL / % patients with serum IL-19 concentration ≤ 21 pg/mL achieving at least PASI 75 / % patients with serum IL-19 concentration ≤ 21 pg/mL not achieving at least PASI 75: 50 mg biweekly subcutaneous
Text: (§1) According to an exemplified embodiment, a sandwich ELISA assay for the sensitive detection of IL-19 is provided herein. According to an exemplified embodiment, a first IL-19 antibody (selected from Table 1, 2 or 3) is utilized as an IL-19 capture antibody and a second IL-19 antibody (selected from Table 1, 2 or 3) is utilized as an IL-19 reporter antibody. […] According to some embodiments, one milligram of the first IL-19 antibody (the capture antibody) is biotinylated using Pierce biotinylation kit (Cat #) and one milligram of the second IL-19 antibody (the reporter antibody) is labeled with ruthenium using MesoScale Discovery (MSD) kit for electrochemiluminescent (ECL) detection. According to such embodiment, labeled antibodies are evaluated using MALDI-TOF to ensure suitable labeling, and then diluted in 50% glycerol and stored at −20° C. prior to use.
(§2) Streptavidin-coated 96-well MSD plates are washed three times with TBST (Tris buffered saline containing 10 mmol/L Tris pH 7.40, 150 mmol/L NaCl with 1 mL Tween 20/L) and then blocked with TBS-T plus 1% BSA for 1 hour at room temperature. Plates are again washed and wells are then incubated with biotinylated IL-19 capture antibody (1 mg/L) for 1 hour. Thereafter, plates are again washed prior to patient sample testing.
(§3) During patient sample testing, a standard curve is generated using 50 μL of recombinant human IL-19 control standard (serially diluted IL-19 recombinant protein ranging from 100-0.0001 ng/L, and including a zero blank, in assay buffer of 50 mmol/L HEPES, pH 7.40, 150 mmol/L NaCl, 10 mL/L Triton X-100, 5 mmol/L EDTA, and 5 mmol/L EGTA). […] Patient samples (which, according to the present invention, may include blood, serum or plasma) are diluted 1:4 in assay buffer and added to respective wells. The plate is incubated overnight at 4° C. Following incubation, wells are aspirated and washed 3 times with TBST. Thereafter, 50 μL of ruthenium-labeled IL-19 detection antibody (0.5 mg/L) is added to the wells for a 1-hour incubation at room temperature. Following incubation, wells are aspirated and washed 3 times with TBST. Thereafter, 150 μl of 2×MSD read buffer is added. Ruthenium electrochemiluminescence in the wells is detected using a MSD Sector 6000 plate reader. Data is analyzed and IL-19 MSD immunoassay calibration curve fitting is performed using MesoScale Discovery software. SAS® software version 9.4 (PROC MIXED) is used for assessing treatment effects on IL-19 levels using a mixed effects model with an unstructured covariance matrix and log10 transformed IL-19 concentrations (SAS. Version 9.4 for UNIX; SAS Institute Inc.: Cary, N.C., 2016). Statistical analysis is generated with the ggplot and pROC packages using R version 3.3.3 statistical computing environment (www.R-project.org, Vienna, Austria, 2017).
A study of IL-19 levels, in serum of 35 Ps0 patients that were complete responders when treated with the FDA approved TNFα antagonist, entanercept, is performed. Treatment groups of 50 mg of etanercept (n=35) administered biweekly or placebo are compared. Administration of both treatment groups is subcutaneous. […] IL-19 levels are assessed for prognostic value with PASI improvement at weeks 4 and 12. Serum IL-19 concentration levels are presented in Table 11; prognostic values at week 4 showing correlations of IL-19 serum levels and PASI in psoriasis patients (21 ng/L indicates the upper limit of the normal range of IL-19 in healthy subjects) is presented in Table 12; prognostic values at week 12 showing correlations of IL-19 serum levels and PASI in psoriasis patients (21 ng/L indicates the upper limit of the normal range of IL-19 in healthy subjects) is presented in Table 13.

[2] = tested on: Ps0 patients; assay: Ps0 study in anti-IL-23 treatment groups: serum IL-19 and PASI; format: in vivo, human
Text: as §1, §2, §3
A study of IL-19 levels, in serum of Ps0 patients treated with a therapeutic antibody targeting IL-23, mirikizumab, is performed. […] Administration of each treatment group, as a single subcutaneous dose, occurs at day 0. […] IL-19 levels are also assessed for prognostic value with PASI improvement between visits 2 and 12. Serum IL-19 concentration levels are presented in Table 14; a comparative of serum levels at week 8 is presented in Table 15; and prognostic values at week 8 showing correlations of IL-19 serum levels and PASI in psoriasis patients (21 ng/L, indicates the upper limit of the normal range of IL-19 in healthy subjects) are presented in Table 16.

[3] = molecular target: T1, human IL-19 / human IL-20R beta Fc-fusion protein (Homo sapiens, UniProt Q9UHD0); assay: BLI in vitro neutralization: IL-19 captured by antibody, then incubated with IL-20R beta Fc; details: block of IL-19 binding to soluble receptor
T1 sequence (Q9UHD0 25-177): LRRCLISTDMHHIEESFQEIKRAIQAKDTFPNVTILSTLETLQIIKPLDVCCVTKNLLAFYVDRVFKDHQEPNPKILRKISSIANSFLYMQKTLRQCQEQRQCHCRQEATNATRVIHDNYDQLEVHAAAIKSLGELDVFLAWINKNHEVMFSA
Text: Alternatively, a biophysical assay such as bio-layer interferometry (BLI) may be used for assessing neutralization of IL-19 by antibodies of the present invention. Binding between a ligand immobilized on the biosensor tip surface and an analyte in solution produces an increase in optical thickness at the biosensor tip, which results in a wavelength shift (expressed in nm). According to such assay, the IL-19 receptor (i.e., […]) is expressed in a membrane-free manner (such as with an Fc-fusion e.g. IL20Rbeta Fc chimera protein from R&D Systems catalog 1788-IR-050). […] The immobilized antibodies are then incubated with recombinant human IL-19 protein diluted to 100 nM using HBS-EP+ running buffer (GE Healthcare, 10 mM Hepes pH7.4+150 mM NaCl+3 mM EDTA+0.05% surfactant P20) for 240-300 secs. The human IL-19, after binding to the anti-IL-19 antibody, is assessed by incubation with human IL-20R beta Fc-fusion protein for 240-300 secs. The ability of the antibody to block or neutralize binding of the IL-19 ligand to the soluble receptor is observed as a minimal (<0.025 nm) increase in the wavelength during this step of the assay.

Molecule: etanercept
IL-19 serum levels (geometric mean) ([1]; Week 0 (baseline)): 98.2 pg/mL | IL-19 serum levels (geometric mean) ([1]; Week 1): 42.3 pg/mL | % of patients with serum IL-19 concentration ≤ 21 pg/mL ([1]; week 4): 37.9% (44/116) | % patients with serum IL-19 concentration ≤ 21 pg/mL achieving at least PASI 75 ([1]; week 4): 22.7% (10/44) | % patients with serum IL-19 concentration ≤ 21 pg/mL not achieving at least PASI 75 ([1]; week 4): 77.3% (34/44) | IL-19 serum levels (geometric mean) ([1]; week 4): 24.3 pg/mL | % of patients with serum IL-19 concentration ≤ 21 pg/mL ([1]; week 12): 42.9% (69/161) | % patients with serum IL-19 concentration ≤ 21 pg/mL achieving at least PASI 75 ([1]; week 12): 49.3% (34/69) | % patients with serum IL-19 concentration ≤ 21 pg/mL not achieving at least PASI 75 ([1]; week 12): 50.7% (35/69) | IL-19 serum levels (geometric mean) ([1]; week 12): 14.2 pg/mL | median reduction in serum IL-19 ([1]; after 1 week): greater than 40 pg/mL | median reduction in serum IL-19 ([1]; at week 4): > 70 pg/mL

B1: mirikizumab (antibody, chains of the INN, looked up, V domains shown)
VH: QVQLVQSGAEVKKPGSSVKVSCKASGYKFTRYVMHWVRQAPGQGLEWMGYINPYNDGTNYNEKFKGRVTITADKSTSTAYMELSSLRSEDTAVYYCARNWDTGLWGQGTTVTVSS
VL: DIQMTQSPSSLSASVGDRVTITCKASDHILKFLTWYQQKPGKAPKLLIYGATSLETGVPSRFSGSGSGTDFTLTISSLQPEDFATYYCQMYWSTPFTFGGGTKVEIK
notes: therapeutic antibody targeting IL-23
IL-19 (geometric mean) serum levels ([2]; 5 mg single subcutaneous dose, Day 1 (baseline)): 16.2 pg/mL | IL-19 (geometric mean) serum levels ([2]; 5 mg single subcutaneous dose, Day 15): 13.9 pg/mL | IL-19 (geometric mean) serum levels ([2]; 5 mg single subcutaneous dose, Day 29): 10.4 pg/mL | IL-19 (geometric mean) serum levels ([2]; 5 mg single subcutaneous dose, Day 57): 13.2 pg/mL | IL-19 (geometric mean) serum levels ([2]; 5 mg single subcutaneous dose, Day 71): 14.5 pg/mL | IL-19 (geometric mean) serum levels ([2]; 20 mg single subcutaneous dose, Day 1 (baseline)): 37.2 pg/mL | IL-19 (geometric mean) serum levels ([2]; 20 mg single subcutaneous dose, Day 15): 27.2 pg/mL | IL-19 (geometric mean) serum levels ([2]; 20 mg single subcutaneous dose, Day 29): 25.4 pg/mL | IL-19 (geometric mean) serum levels ([2]; 20 mg single subcutaneous dose, Day 57): 33.5 pg/mL | IL-19 (geometric mean) serum levels ([2]; 20 mg single subcutaneous dose, Day 71): 28.4 pg/mL | IL-19 (geometric mean) serum levels ([2]; 60 mg single subcutaneous dose, Day 1 (baseline)): 49.8 pg/mL | IL-19 (geometric mean) serum levels ([2]; 60 mg single subcutaneous dose, Day 15): 9.0 pg/mL | IL-19 (geometric mean) serum levels ([2]; 60 mg single subcutaneous dose, Day 29): 10.8 pg/mL | IL-19 (geometric mean) serum levels ([2]; 60 mg single subcutaneous dose, Day 57): 11.9 pg/mL | IL-19 (geometric mean) serum levels ([2]; 60 mg single subcutaneous dose, Day 71): 10.9 pg/mL | IL-19 (geometric mean) serum levels ([2]; 120 mg single subcutaneous dose, Day 1 (baseline)): 52.4 pg/mL | IL-19 (geometric mean) serum levels ([2]; 120 mg single subcutaneous dose, Day 15): 26.6 pg/mL | IL-19 (geometric mean) serum levels ([2]; 120 mg single subcutaneous dose, Day 29): 25.2 pg/mL | IL-19 (geometric mean) serum levels ([2]; 120 mg single subcutaneous dose, Day 57): 22.2 pg/mL | IL-19 (geometric mean) serum levels ([2]; 120 mg single subcutaneous dose, Day 71): 18.2 pg/mL | IL-19 (geometric mean) serum levels ([2]; 200 mg single subcutaneous dose, Day 1 (baseline)): 69.6 pg/mL | IL-19 (geometric mean) serum levels ([2]; 200 mg single subcutaneous dose, Day 15): 36.0 pg/mL | IL-19 (geometric mean) serum levels ([2]; 200 mg single subcutaneous dose, Day 29): 23.3 pg/mL | IL-19 (geometric mean) serum levels ([2]; 200 mg single subcutaneous dose, Day 57): 21.9 pg/mL | IL-19 (geometric mean) serum levels ([2]; 200 mg single subcutaneous dose, Day 71): 22.5 pg/mL | IL-19 (geometric mean) serum levels ([2]; 300 mg, Week 0 (Baseline)): 106.5 pg/mL | IL-19 (geometric mean) serum levels ([2]; 300 mg, Week 8 (End of induction)): 18.2 pg/mL | % of patients with serum IL-19 concentration ≤ 21 pg/mL ([2]; 300 mg, week 8): 58.3% (28/48) | % patients with serum IL-19 concentration ≤ 21 pg/mL achieving at least PASI 75 ([2]; 300 mg, week 8): 71.4% (20/28) | % patients with serum IL-19 concentration ≤ 21 pg/mL not achieving at least PASI 75 ([2]; 300 mg, week 8): 28.6% (8/28) | IL-19 (geometric mean) serum levels ([2]; 350 mg single subcutaneous dose, Day 1 (baseline)): 58.4 pg/mL | IL-19 (geometric mean) serum levels ([2]; 350 mg single subcutaneous dose, Day 15): 35.2 pg/mL | IL-19 (geometric mean) serum levels ([2]; 350 mg single subcutaneous dose, Day 29): 22.4 pg/mL | IL-19 (geometric mean) serum levels ([2]; 350 mg single subcutaneous dose, Day 57): 23.7. pg/ml | IL-19 (geometric mean) serum levels ([2]; 350 mg single subcutaneous dose, Day 71): 18.0 pg/mL | IL-19 (geometric mean) serum levels ([2]; 600 mg single subcutaneous dose, Day 1 (baseline)): 57.3 pg/mL | IL-19 (geometric mean) serum levels ([2]; 600 mg single subcutaneous dose, Day 15): 30.1 pg/mL | IL-19 (geometric mean) serum levels ([2]; 600 mg single subcutaneous dose, Day 29): 21.8 pg/mL | IL-19 (geometric mean) serum levels ([2]; 600 mg single subcutaneous dose, Day 57): 14.4. pg/ml | IL-19 (geometric mean) serum levels ([2]; 600 mg single subcutaneous dose, Day 71): 15.8 pg/mL

Neutralization [3]: No
B2: M_2: murine-derived IL-19 antibody; LC SEQ ID NO: 10, HC SEQ ID NO: 14 (antibody)
heavy: LVQLQQSDAELVKPGASLKISCKVSGYTFTDHALHWMKQRPEQGLEWIGYIYPRDGSTKYNEKFKGKATLTADRSSSTAYMELNSLTSEDSAVYFCARGWDFAMDYWGQGTSVTVSSAKTTPPSVYPLAPGSAAQTNSMVTLGCLVKGYFPEPVTVTWNSGSLSSGVHTFPAVLQSDLYTLSSSVTVPSSTWPSETVTCNVAHPASSTKVDKKIVPRDCGCKPCICTVPEVSSVFIFPPKPKDVLTITLTPKVTCVVVDISKDDPEVQFSWFVDDVEVHTAQTQPREEQFNSTFRSVSELPIMHQDWLNGKEFKCRVNSAAFPAPIEKTISKTKGRPKAPQVYTIPPPKEQMAKDKVSLTCMITDFFPEDITVEWQWNGQPAENYKNTQPIMDTDGSYFVYSKLNVQKSNWEAGNTFTCSVLHEGLHNHHTEKSLSHSPGK
light: DIVLTQSPESLAVSLGQRATISCRASESVDNYGISFIHWYQQKPGQPPKLLIYRASNLKSGIPARFSGRGSRTDFTLTINPVETDDVATYYCQQINKDPLTFGAGTKLELKRADAAPTVSIFPPSSEQLTSGGASVVCFLNNFYPKDINVKWKIDGSERQNGVLNSWTDQDSKDSTYSMSSTLTLTKDEYERHNSYTCEATHKTSTSPIVKSFNRNEC
